Assay results published in paper PMC2582589 (Structure (London, England : 1993), 2008).
Residue numbers refer to the chain shown, from its start. Numbers in names are those of the source. Where two headings read alike, the source gives them in different places. Square brackets hold non-standard residues; d marks the D form. Ends that are not written are not given here. Lys(Me3) = C[N+](C)(C)CCCC[C@H](N)C(=O)O

Tests used:
[1] = target: T1, Eaf3 chromo barrel domain (1–113 aa) (Saccharomyces cerevisiae, UniProt Q12432); assay: 15N-1H HSQC NMR titration of 15N-labeled Eaf3; format: binding; conditions: for affinity for Eaf3 (in words): HSQC titration, pH 6.7; for affinity relative to other methylated ligands (in words): from KD comparison
T1 sequence (Q12432 1-113): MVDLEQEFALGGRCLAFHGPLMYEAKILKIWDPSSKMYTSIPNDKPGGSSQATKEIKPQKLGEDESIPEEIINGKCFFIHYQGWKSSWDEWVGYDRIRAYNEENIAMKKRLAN

[2] = target: T2, Eaf3 chromo barrel domain (1–113 aa) (S. cerevisiae, UniProt Q12432 1-113); assay: NMR titration
T2 sequence (looked up): T1 sequence (Q12432 1-113)

[3] = Gel filtration chromatography of extended Eaf3; format: physicochemical; conditions: change in gel filtration chromatography retention time (data not shown)
[4] = Protein stability, precipitation or aggregation of Eaf3 constructs; format: physicochemical; conditions: purified proteins expressed in Escherichia coli or NMR samples
[5] = tested on: Eaf3 chromo barrel domain and linked H3KC36me2; assay: 15N-1H HSQC spectra of fused Eaf3-H3C36; format: binding, Saccharomyces cerevisiae; conditions: 15N-1H HSQC before and after dimethylation, 300K, pH 6.7
[6] = read-out: dissociation constant (KD), 15N-1H HSQC titration, 15N-labeled Eaf3 (1–113 aa), 300K, 20 mM NaPi pH 6.7, 50 mM NaCl, 1 mM EDTA, 2 mM DTT, range of estimates from amide peaks of two to four selected amino acids, curve fitting

## CN(C)C(N)=NCCC[C@H](N)C(=O)O [asymmetrically dimethylated arginine, reference compound]
[1]; 300K
  affinity for Eaf3 (in words): does not have any significant affinity

## C[N+](C)(C)CCCC[C@H](N)C(=O)O [trimethyllysine, trimethylated lysine, reference compound]
[1]
  Kd: 8.6 to 19.2 mM
  affinity relative to other methylated ligands (in words): significantly lower than that measured with trimethylated peptides under similar conditions

## ATGGVK36me3KPHRYR [H3K36me3]
[1]; 300K
  affinity for Eaf3 (in words): very low affinity (KD in the millimolar range)
[1]; 300K, listed as methylated H3K36 peptide
  affinity for Eaf3 (in words): millimolar-range affinity
[1]
  affinity relative to other methylated ligands (in words): comparable to that determined for the Eaf3-H3K4me3 complex
[1]; [6]
  Kd: 1.8 to 3.4 mM

## ATGGVKC36me3KPHRYR (ATGGVCKPHRYR; not fully specified (residue 6)) [H3KC36me3]
[1]
  affinity relative to other methylated ligands (in words): only slightly lower than that of the H3K36me3 peptide

## KRHRK20me3VLRDN [H4K20me3]
[1]; [6]
  Kd: 3 to 4 mM

B1: H4K20me3 peptide (16–25 aa) (peptide)
peptide: KRHR[Lys(Me3)]VLRDN
[2]
  Kd: 3 to 4 mM

B2: H3K4me3 peptide (1–10 aa) (peptide)
peptide: ART[Lys(Me3)]QTARKS
[2]
  Kd: 1 to 3 mM

B3: Eaf3 (1–126 aa): Eaf3 extended by 13 residues (protein)
chain: MVDLEQEFALGGRCLAFHGPLMYEAKILKIWDPSSKMYTSIPNDKPGGSSQATKEIKPQKLGEDESIPEEIINGKCFFIHYQGWKSSWDEWVGYDRIRAYNEENIAMKKRLANEAKEAKKSLLEQQ
[3]
  oligomerization (in words): apparent homodimerization

B4: H3K36me3 peptide (31–42 aa) (peptide)
peptide: ATGGV[Lys(Me3)]KPHRYR
[2]
  Kd: 1.8 to 3.4 mM

B5: H3KC36me3 peptide (31–42 aa) (peptide)
peptide: ATGGVCKPHRYR
modifications: not fully specified (residue 6)
[2]
  Kd: 5 to 7 mM

B6: Eaf3: N-terminal 1–113 aa of budding yeast Eaf3 (protein)
chain: T1 sequence (Q12432 1-113)
[4]
  protein stability / precipitation / aggregation (in words): has a tendency to aggregate

B7: Y23A: single-point mutation in Eaf3-H3C36 (protein, UniProt Q12432 1-401, looked up, variant Y23A)
Chromatin …: MVDLEQEFALGGRCLAFHGPLMAEAKILKIWDPSSKMYTSIPNDKPGGSSQATKEIKPQKLGEDESIPEEIINGKCFFIHYQGWKSSWDEWVGYDRIRAYNEENIAMKKRLANEAKEAKKSLLEQQKKKKLSTSLGGPSNGGKRKGDSRSNASISKSTSQSFLTSSVSGRKSGRSSANSLHPGSSLRSSSDQNGNDDRRRSSSLSPNMLHHIAGYPTPKISLQIPIKLKSVLVDDWEYVTKDKKICRLPADVTVEMVLNKYEHEVSQELESPGSQSQLSEYCAGLKLYFDKCLGNMLLYRLERLQYDELLKKSSKDQKPLVPIRIYGAIHLLRLISVLPELISSTTMDLQSCQLLIKQTEDFLVWLLMHVDEYFNDKDPNRSDDALYVNTSSQYEGVALGM
modifications: fused to histone H3 peptide
[4]
  protein stability / precipitation / aggregation (in words): unstable and highly prone to precipitation

B8: Y81A: single-point mutation in Eaf3-H3C36 (protein, UniProt Q12432 1-401, looked up, variant Y81A)
Chromatin …: B7 Chromatin … with A23Y, Y81A
modifications: fused to histone H3 peptide
[4]
  protein stability / precipitation / aggregation (in words): unstable and highly prone to precipitation

B9: W84A: single-point mutation in Eaf3-H3C36 (protein, UniProt Q12432 1-401, looked up, variant W84A)
Chromatin …: B7 Chromatin … with A23Y, W84A
modifications: fused to histone H3 peptide
[4]
  protein stability / precipitation / aggregation (in words): prone to precipitation
[5]
  spectral change upon dimethylation of fused H3C36: Very little spectral change

B10: W88A: single-point mutation in Eaf3-H3C36 (protein, UniProt Q12432 1-401, looked up, variant W88A)
Chromatin …: B7 Chromatin … with A23Y, W88A
modifications: fused to histone H3 peptide
[5]
  spectral change upon dimethylation of fused H3C36: Very little spectral change
